Several values for one entry are separate records, joined by “and”; a condition that tells them apart may be missing. Identical values can stand only once.
Tests used:
Assay type in all cases: biochemical
BRISC BRCC45 D248R = BRISC BRCC45 D248R (Homo sapiens, UniProt P46736+Q15018+Q9NXR7, D248R); test: BRISC mutant IQF assay: BRCC45 D248R
Experimental: (§1) IQF assays were performed in DUB reaction buffer containing 50 mM HEPES–NaOH pH 7.0, 100 mM NaCl, 0.1 mg ml^−1 BSA, 1 mM DTT and 0.03% v/v Brij-35. […] The final concentration of BRISC WT, all BRISC mutants, HsBRISCΔLoop, MmBRISC and DrBRISCΔNΔC was 1 nM. Other enzymes were tested at the following concentrations: 5 nM ARISC (FL), 10 nM CfBRISCΔNΔC, 250 nM AMSH* (ref. [43]), 500 nM USP2 and 1 μM trypsin (Sigma, 9002-07-7). For Michaelis–Menten experiments, 1 nM BRISC with 0–1 μM IQF K63-linked diubiquitin substrate was used. Michaelis–Menten analyses and Lineweaver–Burk plots were calculated using GraphPad Prism (version 9.0).
(§2) To assess enzymatic activity, BRISC complexes were diluted to concentrations between 1 nM and 50 nM. […] Then, 20-μl enzyme reactions were carried out in 384-well black flat-bottom low-flange plates (Corning, 35373). DUB activity was measured using IQF K63-linked diubiquitin (LifeSensors, DU6303) at 50 nM. Cleaved diubiquitin was monitored by measuring fluorescence intensity (excitation, 544 nm; emission, 575 nm; dichroic mirror, 560 nm). Fluorescence intensity was measured every minute for 30 min at 30 °C. Fluorescence intensity units were plotted against time to generate a linear reaction progress curve, where the initial velocity (V0) corresponds to the gradient of the curve (typically achieved within 15 min). IC50 values were calculated using the GraphPad Prism (version 9.0) built-in dose–response equation for inhibitor concentration versus response (variable slope).

BRISC BRCC45 F140A = BRISC BRCC45 F140A (Homo sapiens, UniProt P46736+Q15018+Q9NXR7, F140A); test: BRISC mutant IQF assay: BRCC45 F140A
Experimental: as §1, §2

BRISC BRCC36 L169A = BRISC BRCC36 L169A (Homo sapiens, UniProt P46736+Q15018+Q9NXR7, L169A); test: BRISC mutant IQF assay: BRCC36 L169A
Experimental: as §1, §2

BRISC = target: T1, BRISC (Homo sapiens, UniProt P46736+Q15018+Q9NXR7); test: BRISC DUB activity assay (IQF K63-linked diubiquitin); details: BRISC WT
T1 construct: made in house; host or cells: Spodoptera frugiperda (Sf9) insect cells, MultiBac
Experimental: as §1, §2

BRISC BRCC36 W130A = BRISC BRCC36 W130A (Homo sapiens, UniProt P46736+Q15018+Q9NXR7, W130A); test: BRISC mutant IQF assay: BRCC36 W130A
Experimental: as §1, §2

B1: SHMT2: serine hydroxymethyltransferase 2, metabolic enzyme and endogenous inhibitor of BRISC DUB activity (protein)
chain: QLVRMAIRAQHSNAAQTQTGEANRGWTGQESLSDSDPEMWELLQREKDRQCRGLELIASENFCSRAALEALGSCLNNKYSEGYPGKRYYGGAEVVDEIELLCQRRALEAFDLDPAQWGVNVQPYSGSPANLAVYTALLQPHDRIMGLDLPDGGHLTHGYMSDVKRISATSIFFESMPYKLNPKTGLIDYNQLALTARLFRPRLIIAGTSAYARLIDYARMREVCDEVKAHLLADMAHISGLVAAKVIPSPFKHADIVTTTTHKTLRGTRSGLIFYRKGVKAVDPKTGREIPYTFEDRINFAVFPSLQGGPHNHAIAAVAVALKQACTPMFREYSLQVLKNARAMADALLERGYSLVSGGTDNHLVLVDLRPKGLDGARAERVLELVSITANKNTCPGDRSAITPGGLRLGAPALTSRQFREDDFRRVVDFIDEGVNIGLEVKSKTAKLQDFKSFLLKDSETSQRLANLRQRVEQFARAFPMPGFDEH
Normalised V0 (BRISC BRCC45 D248R; SHMT2 0.00347222 nM): 0.9357 and 1.056 and 1.018 | Normalised V0 (BRISC BRCC45 D248R; SHMT2 0.0347222 nM): 0.8867 and 1.018 and 0.9695 | Normalised V0 (BRISC BRCC45 D248R; SHMT2 0.347222 nM): 0.882 and 0.7691 and 0.9453 | Normalised V0 (BRISC BRCC45 D248R; SHMT2 1.04167 nM): 0.8534 and 1.006 and 0.8339 | Normalised V0 (BRISC BRCC45 D248R; SHMT2 3.125 nM): 0.5795 and 0.5378 and 0.6917 | Normalised V0 (BRISC BRCC45 D248R; SHMT2 6.25 nM): 0.5339 and 0.4364 and 0.5979 | Normalised V0 (BRISC BRCC45 D248R; SHMT2 12.5 nM): 0.3281 and 0.3163 and 0.4228 | Normalised V0 (BRISC BRCC45 D248R; SHMT2 25 nM): 0.3612 and 0.2677 and 0.38 | Normalised V0 (BRISC BRCC45 D248R; SHMT2 200 nM): 0.05731 and 0.07178 and 0.09996 | Normalised V0 (BRISC BRCC45 F140A; SHMT2 0.00347222 nM): 0.9456 and 0.9686 and 0.8245 | Normalised V0 (BRISC BRCC45 F140A; SHMT2 0.0347222 nM): 0.8694 and 1.026 and 0.8239 | Normalised V0 (BRISC BRCC45 F140A; SHMT2 0.347222 nM): 0.9307 and 0.9114 and 0.8975 | Normalised V0 (BRISC BRCC45 F140A; SHMT2 1.04167 nM): 0.8692 and 0.886 and 0.7736 | Normalised V0 (BRISC BRCC45 F140A; SHMT2 3.125 nM): 0.8001 and 0.6891 and 0.7189 | Normalised V0 (BRISC BRCC45 F140A; SHMT2 6.25 nM): 0.7321 and 0.6833 and 0.7086 | Normalised V0 (BRISC BRCC45 F140A; SHMT2 12.5 nM): 0.4577 and 0.4521 and 0.5184 | Normalised V0 (BRISC BRCC45 F140A; SHMT2 25 nM): 0.3014 and 0.3302 and 0.288 | Normalised V0 (BRISC BRCC45 F140A; SHMT2 50 nM): 0.2533 and 0.2485 and 0.2535 | Normalised V0 (BRISC BRCC45 F140A; SHMT2 100 nM): 0.2137 and 0.184 and 0.161 | SHMT2 inhibition of BRISC mutant (BRISC BRCC36 L169A): reduced BRISC inhibition by SHMT2 | Normalised V0 (BRISC BRCC36 L169A; SHMT2 0.00347222 nM): 1.281 and 0.8219 and 0.8866 | Normalised V0 (BRISC BRCC36 L169A; SHMT2 0.0347222 nM): 1.039 and 0.8402 and 0.9713 | Normalised V0 (BRISC BRCC36 L169A; SHMT2 0.347222 nM): 1.104 and 0.8836 and 0.9494 | Normalised V0 (BRISC BRCC36 L169A; SHMT2 1.04167 nM): 1.083 and 0.823 and 0.89 | Normalised V0 (BRISC BRCC36 L169A; SHMT2 3.125 nM): 0.9817 and 0.7218 and 0.8098 | Normalised V0 (BRISC BRCC36 L169A; SHMT2 6.25 nM): 1.047 and 0.8687 and 0.8472 | Normalised V0 (BRISC BRCC36 L169A; SHMT2 12.5 nM): 0.7117 and 0.4856 and 0.677 | Normalised V0 (BRISC BRCC36 L169A; SHMT2 25 nM): 0.5132 and 0.7026 and 0.4911 | Normalised V0 (BRISC BRCC36 L169A; SHMT2 50 nM): 0.4474 and 0.4092 and 0.7591 | Normalised V0 (BRISC; SHMT2 0.00347222 nM): 0.9504 and 1.044 and 0.9816 | Normalised V0 (BRISC; SHMT2 0.0347222 nM): 0.8685 and 1.128 and 1.002 | Normalised V0 (BRISC; SHMT2 0.347222 nM): 0.5106 and 0.9767 and 0.8269 | Normalised V0 (BRISC; SHMT2 1.04167 nM): 0.4439 and 0.8387 and 0.81 | SHMT2 inhibition of BRISC mutant (BRISC BRCC36 W130A): reduced BRISC inhibition by SHMT2 | Normalised V0 (BRISC BRCC36 W130A; SHMT2 0.00347222 nM): 1.237 and 1.127 and 0.9914 | Normalised V0 (BRISC BRCC36 W130A; SHMT2 0.0347222 nM): 1.202 and 1.0039 and 1.016 | Normalised V0 (BRISC BRCC36 W130A; SHMT2 0.347222 nM): 1.306 and 1.037 and 1.029 | Normalised V0 (BRISC BRCC36 W130A; SHMT2 1.04167 nM): 1.133 and 0.9683 and 1.009 | Normalised V0 (BRISC BRCC36 W130A; SHMT2 3.125 nM): 1.059 and 0.8824 and 0.9607

Reference: article PMC7617869, “Molecular glues that inhibit deubiquitylase activity and inflammatory signaling” (Nature Structural & Molecular Biology, 2025)
